According to patent US20200079855A1 (Pfizer, published 2020):

T1: recombinant cynomolgus monkey αvβ8 integrin (cynomolgus monkey, limits assumed)
T1 construct: Recombinant protein immobilised on the Biacore chip; also called cyno αvβ8; cynomolgus αvβ8
T1 chain 1: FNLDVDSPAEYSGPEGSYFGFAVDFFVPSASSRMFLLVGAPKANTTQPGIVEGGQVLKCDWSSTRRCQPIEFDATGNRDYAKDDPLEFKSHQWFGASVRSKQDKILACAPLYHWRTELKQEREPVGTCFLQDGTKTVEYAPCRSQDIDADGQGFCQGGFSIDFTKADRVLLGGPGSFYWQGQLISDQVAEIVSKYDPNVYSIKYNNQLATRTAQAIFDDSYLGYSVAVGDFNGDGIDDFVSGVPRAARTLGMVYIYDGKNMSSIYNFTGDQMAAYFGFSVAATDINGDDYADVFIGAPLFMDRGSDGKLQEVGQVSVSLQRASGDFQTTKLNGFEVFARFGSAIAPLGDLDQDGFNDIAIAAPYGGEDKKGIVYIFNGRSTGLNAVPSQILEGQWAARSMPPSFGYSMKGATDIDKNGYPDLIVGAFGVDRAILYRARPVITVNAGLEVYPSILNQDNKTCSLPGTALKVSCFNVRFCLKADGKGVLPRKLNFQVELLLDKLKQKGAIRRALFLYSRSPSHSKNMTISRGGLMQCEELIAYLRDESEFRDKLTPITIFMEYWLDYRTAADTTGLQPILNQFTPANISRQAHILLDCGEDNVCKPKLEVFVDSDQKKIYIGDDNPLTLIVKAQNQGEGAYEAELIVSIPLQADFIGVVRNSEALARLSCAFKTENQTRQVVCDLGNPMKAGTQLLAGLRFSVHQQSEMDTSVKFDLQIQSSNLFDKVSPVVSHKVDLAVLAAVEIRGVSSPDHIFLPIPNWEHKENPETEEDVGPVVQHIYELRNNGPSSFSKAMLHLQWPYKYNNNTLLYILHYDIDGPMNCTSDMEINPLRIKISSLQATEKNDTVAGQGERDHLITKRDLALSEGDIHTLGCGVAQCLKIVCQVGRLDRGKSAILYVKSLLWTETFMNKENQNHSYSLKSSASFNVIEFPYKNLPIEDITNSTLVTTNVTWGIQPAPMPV
T1 chain 2: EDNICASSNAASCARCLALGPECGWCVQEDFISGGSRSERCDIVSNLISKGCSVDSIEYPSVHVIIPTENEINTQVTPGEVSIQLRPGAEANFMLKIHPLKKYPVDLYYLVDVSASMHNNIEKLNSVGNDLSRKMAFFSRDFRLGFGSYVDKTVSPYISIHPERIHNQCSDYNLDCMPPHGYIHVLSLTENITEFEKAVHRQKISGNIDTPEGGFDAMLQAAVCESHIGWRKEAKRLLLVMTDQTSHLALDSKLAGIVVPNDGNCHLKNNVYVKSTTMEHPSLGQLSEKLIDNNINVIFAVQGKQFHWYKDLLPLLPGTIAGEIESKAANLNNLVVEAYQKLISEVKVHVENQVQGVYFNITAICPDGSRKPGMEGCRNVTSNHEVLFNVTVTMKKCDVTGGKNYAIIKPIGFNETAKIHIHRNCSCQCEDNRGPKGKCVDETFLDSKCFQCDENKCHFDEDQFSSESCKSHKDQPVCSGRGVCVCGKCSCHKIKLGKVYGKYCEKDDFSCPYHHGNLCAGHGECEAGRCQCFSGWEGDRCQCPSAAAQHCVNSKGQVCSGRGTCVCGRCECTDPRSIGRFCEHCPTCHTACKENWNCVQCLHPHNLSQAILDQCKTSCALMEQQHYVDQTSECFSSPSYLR


Legend:
[1] = target: T2, recombinant human αvβ3 integrin (human, UniProt P06756 31-992; P05106 27-718); assay: SPR (Biacore)
T2 construct: Used in ELISA and immobilised on the Biacore chip; construct not described; also called hαvβ3; AVB3
T2 sequence (P05106 27-718 limits assumed, one chain of several): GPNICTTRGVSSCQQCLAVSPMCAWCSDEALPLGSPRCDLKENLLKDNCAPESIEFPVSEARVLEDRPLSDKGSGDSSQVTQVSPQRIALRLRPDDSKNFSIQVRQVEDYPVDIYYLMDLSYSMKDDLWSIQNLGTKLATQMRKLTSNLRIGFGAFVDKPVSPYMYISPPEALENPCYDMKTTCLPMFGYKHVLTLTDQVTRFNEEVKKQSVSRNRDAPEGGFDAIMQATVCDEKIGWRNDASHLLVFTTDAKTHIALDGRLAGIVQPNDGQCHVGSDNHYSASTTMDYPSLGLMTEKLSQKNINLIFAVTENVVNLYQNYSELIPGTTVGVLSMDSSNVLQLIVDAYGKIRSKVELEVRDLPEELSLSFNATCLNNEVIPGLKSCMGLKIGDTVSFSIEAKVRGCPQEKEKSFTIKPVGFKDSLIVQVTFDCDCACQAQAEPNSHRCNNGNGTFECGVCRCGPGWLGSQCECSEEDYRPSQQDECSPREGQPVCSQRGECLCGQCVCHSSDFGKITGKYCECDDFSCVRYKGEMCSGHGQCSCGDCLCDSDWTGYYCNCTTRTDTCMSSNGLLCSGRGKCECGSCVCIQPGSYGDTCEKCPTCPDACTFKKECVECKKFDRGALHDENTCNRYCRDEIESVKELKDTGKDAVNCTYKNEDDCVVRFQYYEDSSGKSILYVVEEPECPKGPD

[2] = target: T3, recombinant human αvβ6 integrin (human, UniProt P06756 31-992; P18564 22-707); assay: SPR (Biacore)
T3 construct: Used in ELISA and immobilised on the Biacore chip; construct not described; also called hαvβ6; AVB6
T3 sequence (P18564 22-707 limits assumed, one chain of several): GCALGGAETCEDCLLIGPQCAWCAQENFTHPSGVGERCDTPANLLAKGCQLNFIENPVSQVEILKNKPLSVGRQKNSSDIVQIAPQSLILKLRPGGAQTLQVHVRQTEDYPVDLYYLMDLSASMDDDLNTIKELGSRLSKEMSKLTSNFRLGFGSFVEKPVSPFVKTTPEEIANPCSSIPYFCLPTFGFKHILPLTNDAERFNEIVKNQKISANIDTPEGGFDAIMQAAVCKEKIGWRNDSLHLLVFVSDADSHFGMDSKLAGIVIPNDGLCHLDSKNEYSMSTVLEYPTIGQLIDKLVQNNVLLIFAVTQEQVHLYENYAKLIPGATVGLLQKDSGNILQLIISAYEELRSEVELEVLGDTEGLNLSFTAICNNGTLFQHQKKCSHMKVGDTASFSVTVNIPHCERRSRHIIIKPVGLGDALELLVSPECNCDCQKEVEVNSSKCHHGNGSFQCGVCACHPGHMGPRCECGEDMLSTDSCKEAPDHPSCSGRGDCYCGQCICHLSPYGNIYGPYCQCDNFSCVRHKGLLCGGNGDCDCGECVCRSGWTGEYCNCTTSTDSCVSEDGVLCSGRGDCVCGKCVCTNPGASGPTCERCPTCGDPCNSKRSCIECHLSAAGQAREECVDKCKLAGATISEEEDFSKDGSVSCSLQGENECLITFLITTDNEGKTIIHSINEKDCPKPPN

[3] = target: recombinant human αvβ8 integrin (human) (UniProt P06756); assay: SPR (Biacore T200), Fab over biotinylated recombinant αvβ8 on streptavidin chip, n>=3
[4] = target: T4, recombinant rat αvβ8 integrin (rat, UniProt F1LZX9 31-987; A0A0G2JVU1 43-682); assay: as above
T4 construct: Recombinant protein immobilised on the Biacore chip
Experimental: (§1) More specifically, recombinant αvβ8 integrin (e.g., R&D Systems) was biotin labeled via primary amines and immobilized on a Sensor Chip SA using a Biacore™ T200 instrument (GE Healthcare Life Sciences). Fab binding experiments were performed at 25° C. using a 30 μl/min flow rate in 0.01 M HEPES pH 7.4, 0.15 M NaCl, 1-2 mM MgCl₂, and 0.005% v/v surfactant P20 (HBS-P) buffer. Association was monitored for 5-10 minutes and dissociation for a further 15-20 minutes for each Fab concentration. After each injection, the chip surface was regenerated with IgG elution buffer (Thermo Fisher Scientific). All data was analyzed using the Biacore™ T200 Evaluation software. Data was dual background subtracted using the adjacent flow cell coupled with streptavidin without captured integrin, and buffer only injections. Kinetic constants for at least three experiments were obtained and reported as the mean.
(§2) To evaluate the monomeric KD of the Fab ADWA11 2.4, also referred to herein as ADWA-11 VH05-2/VK01(2.4) and ADWA11 5-2 2.4, and the parental mouse IgG, recombinant human, cynomolgus, mouse, and rat αvβ8 was immobilized on a Biacore chip and the ka and kd of the Fabs were determined as generally described herein (Table 6).

[5] = target: T1, recombinant cynomolgus monkey αvβ8 …; assay: as above
Experimental: as §1, §2

[6] = target: T5, recombinant mouse αvβ8 integrin (mouse, UniProt P43406 31-988; Q0VBD0 22-681, limits assumed); assay: as above
T5 construct: Recombinant protein immobilised on the Biacore chip
T5 sequence (P43406 31-988 limits assumed, chain 1 of 2): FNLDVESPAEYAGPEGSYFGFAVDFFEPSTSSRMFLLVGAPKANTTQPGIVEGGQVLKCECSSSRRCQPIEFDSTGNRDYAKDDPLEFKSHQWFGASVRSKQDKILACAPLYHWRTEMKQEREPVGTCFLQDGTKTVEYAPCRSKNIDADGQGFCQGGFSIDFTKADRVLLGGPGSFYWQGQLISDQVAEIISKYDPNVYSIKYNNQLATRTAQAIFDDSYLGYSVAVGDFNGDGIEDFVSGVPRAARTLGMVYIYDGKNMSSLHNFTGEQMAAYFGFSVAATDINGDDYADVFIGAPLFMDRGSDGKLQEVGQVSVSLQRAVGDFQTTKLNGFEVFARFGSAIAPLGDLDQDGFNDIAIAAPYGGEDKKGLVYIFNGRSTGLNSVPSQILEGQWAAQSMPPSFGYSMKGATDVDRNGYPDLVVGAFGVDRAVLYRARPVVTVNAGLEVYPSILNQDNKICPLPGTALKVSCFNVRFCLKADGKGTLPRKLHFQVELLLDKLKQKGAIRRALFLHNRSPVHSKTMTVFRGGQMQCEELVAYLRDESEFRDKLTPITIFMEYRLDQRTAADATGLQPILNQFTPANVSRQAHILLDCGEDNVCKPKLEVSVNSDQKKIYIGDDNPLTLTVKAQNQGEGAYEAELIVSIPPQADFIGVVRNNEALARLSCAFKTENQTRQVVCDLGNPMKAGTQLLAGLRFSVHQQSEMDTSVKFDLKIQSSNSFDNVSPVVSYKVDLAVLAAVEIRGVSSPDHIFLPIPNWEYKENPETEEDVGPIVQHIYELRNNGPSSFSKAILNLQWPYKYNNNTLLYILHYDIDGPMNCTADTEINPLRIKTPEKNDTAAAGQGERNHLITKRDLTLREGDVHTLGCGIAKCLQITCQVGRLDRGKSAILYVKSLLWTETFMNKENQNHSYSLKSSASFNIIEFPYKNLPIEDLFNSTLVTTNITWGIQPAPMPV
T5 sequence (Q0VBD0 22-681 limits assumed, chain 2 of 2): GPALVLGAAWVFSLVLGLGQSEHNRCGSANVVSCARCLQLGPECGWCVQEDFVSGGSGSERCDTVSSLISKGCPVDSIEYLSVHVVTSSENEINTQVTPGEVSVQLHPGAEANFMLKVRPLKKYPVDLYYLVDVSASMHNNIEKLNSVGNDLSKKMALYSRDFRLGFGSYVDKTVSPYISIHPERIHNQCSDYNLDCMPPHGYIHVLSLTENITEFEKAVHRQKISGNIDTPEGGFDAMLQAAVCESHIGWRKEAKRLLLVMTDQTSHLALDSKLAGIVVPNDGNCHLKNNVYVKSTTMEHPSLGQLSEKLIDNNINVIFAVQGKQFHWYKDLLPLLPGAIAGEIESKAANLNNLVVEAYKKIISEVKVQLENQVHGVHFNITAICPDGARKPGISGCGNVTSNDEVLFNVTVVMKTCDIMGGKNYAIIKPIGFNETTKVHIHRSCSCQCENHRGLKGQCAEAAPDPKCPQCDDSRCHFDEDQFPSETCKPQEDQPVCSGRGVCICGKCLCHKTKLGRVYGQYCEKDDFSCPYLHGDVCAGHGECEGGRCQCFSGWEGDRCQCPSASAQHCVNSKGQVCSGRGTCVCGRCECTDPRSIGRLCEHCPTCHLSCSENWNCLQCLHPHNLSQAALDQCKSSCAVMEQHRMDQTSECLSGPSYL
Experimental: as §1, §2

[7] = target: recombinant human αvβ8 integrin (human) (UniProt P06756); assay: SPR (Biacore), additional experiments
[8] = target: T1, recombinant cynomolgus monkey αvβ8 …; assay: SPR (Biacore), additional experiments
Experimental: as §1

[9] = target: T5, recombinant mouse αvβ8 integrin; assay: SPR (Biacore), additional experiments
Experimental: as §1

[10] = target: T6, human αvβ8 integrin on U251 cells (human, UniProt P06756 31-1048); assay: flow cytometry, Fab binding to fixed U251 cells (MFI APC-A); EC50 unit inferred, axis Log10 [Ab] (nM)
[11] = target: recombinant human αvβ8 integrin (human) (UniProt P06756); assay: ELISA on human αvβ8 (legend box: human avb8), mAb titration
[12] = target: T2, recombinant human αvβ3 integrin; assay: ELISA (title Specificity Binding ELISA), absorbance 450 nm against [mAb] (nM)
[13] = target: T3, recombinant human αvβ6 integrin; assay: as above
[14] = target: T6, human αvβ8 integrin on U251 cells; assay: cell-based or functional assay
[15] = target: T6, human αvβ8 integrin on U251 cells; assay: cell-based or functional assay; remark: listed apart in the source
[16] = target: recombinant human αvβ8 integrin (human) (UniProt P06756); assay: SPR (Biacore), Fab over immobilised recombinant αvβ8; the upper end is the human value of Tables 3 and 6
[17] = target: recombinant human αvβ8 integrin (human) (UniProt P06756); assay: SPR (Biacore), Fab affinity of Table 3

binding result [1] | binding result [2] | Kd [3] | koff [3] | kon [3] | Kd [5] | koff [5] | kon [5] | Kd [6] | koff [6] | kon [6] | Binder | also measured
no binding | no binding | < 0.2 nM | < 3e-05 s⁻¹ | 161000 M⁻¹ s⁻¹ | ≤ 0.2 nM | ≤ 2e-05 s⁻¹ | 172000 M⁻¹ s⁻¹ | ≤ 0.2 nM | 1.82e-05 s⁻¹ | 257000 M⁻¹ s⁻¹ | ADWA11 2.4 Fab (Fab, V domains shown, Fab; also called ADWA11 5-2 2.4; ADWA11_5-2 2.4 Fab) VH: EVQLVESGGGLVQPGGSLRLSCAASGFNIKDYYMNWVRQAPGKGLEWVGWIDPDQGNTIYEPKFQGRFTISADTSKNSAYLQMNSLRAEDTAVYYCARRLLMDYWGQGTLVTVSS VL: DIQMTQSPSSLSASVGDRVTITCRSTKSLSHFNGNTYLFWYQQKPGKAPKRLIYYMSSLASGVPSRFSGSGSGTDFTLTISSLQPEDFATYYCQQSLEYPFTFGGGTKVEIK | Kd [4]: ≤ 0.2 nM; koff [4]: ≤ 2e-05 s⁻¹; kon [4]: 341000 M⁻¹ s⁻¹; Kd [7]: < 0.1 nM; Kd [8]: < 0.1 nM; Kd [9]: 0.0708 nM; EC50 [10]: 0.205 nM
– | – | – | – | – | – | – | – | – | – | – | Mouse hybridoma antibody ADWA-11 (antibody, V domains shown, Whole native murine IgG from the hybridoma; also called mADWA11; mADWA-11) VH: EVQLQQSGAELVRPGAFVKLSCKASGFNIKDYYMNWVLQRPEQGLEWIGWIDPDNGNTIYDPKFQGKASITADTSSNTAYLQLSSLTSEDTAVYYCARRLLMDYWGQGTSVTVSS VL: DIVMTQAAPSVPVTPGESVSISCRSTKSLLHFNGNTYLFWFLQRPGQSPQRLIYYMSNLASGVPDRFSGRGSGTDFTLRISRVEAEDVGVYYCMQSLEYPFTFGTGTKLEIK | EC50 (read off the curve) [11]: 0.3 nM; binding result [12]: no binding (tested: about 500 nM); binding result [13]: no binding (tested: about 500 nM); IgG Potency TGFB Assay IC50 (pM) [14]: 183 pM
no binding | no binding | 0.536 nM | 4.86e-05 s⁻¹ | 92200 M⁻¹ s⁻¹ | 0.507 nM | 4.97e-05 s⁻¹ | 98100 M⁻¹ s⁻¹ | 0.489 nM | 5.03e-05 s⁻¹ | 103000 M⁻¹ s⁻¹ | Mouse hybridoma ADWA-11 Fab (Fab, V domains shown, Fab; also called mFab; Ms ADWA11 Fab) VH: EVQLQQSGAELVRPGAFVKLSCKASGFNIKDYYMNWVLQRPEQGLEWIGWIDPDNGNTIYDPKFQGKASITADTSSNTAYLQLSSLTSEDTAVYYCARRLLMDYWGQGTSVTVSS VL: DIVMTQAAPSVPVTPGESVSISCRSTKSLLHFNGNTYLFWFLQRPGQSPQRLIYYMSNLASGVPDRFSGRGSGTDFTLRISRVEAEDVGVYYCMQSLEYPFTFGTGTKLEIK | EC50 value measured by apparent affinity in the TGF-β transactivation assay [15]: 4.6 nM; Kd [16]: 0.489 to 0.536 nM; Kd [17]: 0.536 nM; kon [17]: 92200 M⁻¹ s⁻¹
